Results on 2 molecules are retold here after patent publication US20230365671A1 (ONCOONE RESEARCH AND DEVELOPMENT, published 2023).

Experiment [1] concerns the target T1, oxMIF: recombinant human MIF immobilized into ELISA plates (transforming MIF to oxMIF) (human, UniProt P14174 2-115).
T1 construct: Same polypeptide as redMIF; differs in conformation (oxMIF isoform); also called immobilized MIF; immobilized oxMIF
The experiment is described as follows: ELISA, antibody titrated on plate-immobilized recombinant human MIF (oxMIF), goat anti-human IgG(Fc)-HRP; EC50 of 4-parameter fit given as KD, two experiments. The procedure: Recombinant human MIF diluted in PBS at 1 μg/ml was immobilized into ELISA plates overnight at 4° C. (transforming MIF to oxMIF according to Thiele et al., 2015). After blocking, serial dilutions of anti-oxMIF antibodies were added to the plates. Finally, bound antibodies were detected with Goat anti-human IgG(Fc)-HRP conjugate and tetramethylbenzidine (TMB) as substrate. The chromogenic reaction was stopped with 3M H₂SO₄ and OD was measured at 450 nm.

Experiment [2] concerns the target T2, Human oxMIF (human recombinant MIF treated with 0.2% Proclin300, oxMIF surrogate) (human, UniProt P14174 2-115, treated with 0.2% Proclin300 (active component 5-chloro-2-methyl-4-isothiazolin-3-one) for 3 h to transform MIF into an oxMIF surrogate).
T2 construct: SPR analyte; also called Proclin300 treated MIF; soluble human oxMIF
The experiment is described as follows: SPR (Biacore 3000), antibody amine-coupled to CM5 chip, Proclin300-treated MIF 50-150 nM as analyte, 1:1 Langmuir with mass transfer; mean of flow cells 2-4, SD +/-2.30 nM. The procedure:
(§1) FC1 was used as reference cell and was only reacted with buffers. Mouse or human recombinant MIF were diluted in HBS-EP buffer (GE Healthcare) to concentrations of 50, 75, 100, or 150 nM in the presence of 0.2% Proclin300 (active component 5-chloro-2-methyl-4-isothiazolin-3-one; Sigma) to transform MIF into an oxMIF surrogate (Thiele M et al., 2015) for 3 h at room temperature. Proclin300 treated MIF was applied to immobilized anti-oxMIF antibodies at a flow rate of 30 μl/min for 3 min using a Biacore™ 3000 Instrument (GE Healthcare). Dissociation time was 300 seconds, and the chip was regenerated using 10 mM HCl for 3 minutes. The kinetics of the concentration series were analyzed by local simultaneous association/dissociation fitting of each binding curve after subtraction of background from the reference cell (FC1) using the iterative Langmuir 1:1 interaction model with mass transfer compensation provided by the BiaEvaluation 4.1 software (GE Healthcare). Data are represented as mean+/−SD (standard deviation) of the calculated KD values of Flow Cells 2-4.
In general terms: SPR reads the build-up and loss of mass on a sensor chip optically.

Experiment [3] has as its target T2, Human oxMIF (human recombinant MIF …). The experiment is described as follows: SPR (Biacore 3000), antibody amine-coupled to CM5 chip, Proclin300-treated MIF 50-150 nM as analyte, 1:1 Langmuir with mass transfer; mean of flow cells 2-4, SD +/-0.83 nM. The procedure:
as §1

In general, Kd refers to the constant that tells how readily two partners part at equilibrium.

T1 sequence (P14174 2-115 limits assumed): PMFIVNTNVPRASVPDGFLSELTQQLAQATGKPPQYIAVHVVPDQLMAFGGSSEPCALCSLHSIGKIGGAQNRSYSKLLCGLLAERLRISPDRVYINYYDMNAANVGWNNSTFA
T2 sequence (P14174 2-115 limits assumed): as above

B1: anti-oxMIF antibody C0108 (antibody, human IgG1, kappa)
heavy: EVQLQESGGGLVQPGGSLRLSCAASGFTFSIYSMNWVRQAPGKGLEWVSSIGSSGGTTYYADSVKGRFTISRDNSKNTLYLQMNSLRAEDTAVYYCAGSQYLYGMDVWGQGTTVTVSSASTKGPSVFPLAPSSKSTSGGTAALGCLVKDYFPEPVTVSWNSGALTSGVHTFPAVLQSSGLYSLSSVVTVPSSSLGTQTYICNVNHKPSNTKVDKKVEPKSCDKTHTCPPCPAPELLGGPDVFLFPPKPKDTLMISRTPEVTCVVVDVSHEDPEVQFNWYVDGVEVHNAKTKPREEQFNSTFRVVSVLTVVHQDWLNGKEYKCKVSNKALPAPEEKTISKTKGQPREPQVYTLPPSREEMTKNQVSLTCLVKGFYPSDIAVEWESNGQPENNYKTTPPMLDSDGSFFLYSKLTVDKSRWQQGNVFSCSVMHEALHNHYTQKSLSLSPG
light: DIQMTQSPSSLSASVGDRVTITCRSSQRIMTYLNWYQQKPGKAPKLLIYVGSHSQSGVPSRFRGSGSETDFTLTISGLQPEDSATYYCQQSFFTPLTFGGGTKVEIKRTVAAPSVFIFPPSDEQLKSGTASVVCLLNNFYPREAKVQWKVDNALQSGNSQESVTEQDSKDSTYSLSSTLTLSKADYEKHKVYACEVTHQGLSSPVTKSFNRGEC
notes: ADCC/ADCP enhancing mutations in the Fc portion
As to B1, the Kd is 0.3 nM in experiment [1] and 6.06 nM in experiment [2].

B2: anti-oxMIF antibody C0109 (antibody, human IgG1, kappa)
heavy: EVQLQESGGGLVQPGGSLRLSCAASGFTFSIYSMNWVRQAPGKGLEWVSSIGSSGGTTYYADSVKGRFTISRDNSKNTLYLQMNSLRAEDTAVYYCAGSQYLYGMDVWGQGTTVTVSSASTKGPSVFPLAPSSKSTSGGTAALGCLVKDYFPEPVTVSWNSGALTSGVHTFPAVLQSSGLYSLSSVVTVPSSSLGTQTYICNVNHKPSNTKVDKKVEPKSCDKTHTCPPCPAPELLGGPDVFLFPPKPKDTLMISRTPEVTCVVVDVSHEDPEVQFNWYVDGVEVHNAKTKPREEQFNSTFRVVSVLTVVHQDWLNGKEYKCKVSNKALPAPEEKTISKTKGQPREPQVYTLPPSREEMTKNQVSLTCLVKGFYPSDIAVEWESNGQPENNYKTTPPMLDSDGSFFLYSKLTVDKSRWQQGNVFSCSVMHEALHNHYTQKSLSLSPG
light: DIQMTQSPSSLSASVGDRVTITCRSSQRILTYLNWYQQKPGKAPKLLIYVGSHSQSGVPSRFRGSGSETDFTLTISGLQSEDSATYYCQQSFFTPLTFGGGTKVEIKRTVAAPSVFIFPPSDEQLKSGTASVVCLLNNFYPREAKVQWKVDNALQSGNSQESVTEQDSKDSTYSLSSTLTLSKADYEKHKVYACEVTHQGLSSPVTKSFNRGEC
notes: as for B1
B2: the figures for the Kd in experiment [1] and in experiment [3] were 0.3 nM and 3.69 nM, respectively.
